Results: patent US20240294646A1

Columns and labels:
[1] = target: Soluble FcγRIIb extracellular domain with C-terminal 10×His tag (UniProt P31994); assay: SPR (Biacore 4000), antibody captured on immobilised HER2, soluble receptor as analyte
[2] = target: Soluble FcγRIIaR extracellular domain with C-terminal 10×His tag (UniProt P12318); assay: as above
[3] = target: FcγRIIaR, soluble extracellular domain (UniProt P12318); assay: SPR (Biacore 4000, Protocol 2): antibody captured on immobilised HER2, soluble receptor as analyte
[4] = target: FcγRIIb, soluble extracellular domain (UniProt P31994); assay: as above
FcγRIIb [5] = target: FcγRIIb (UniProt P31994); assay: SPR (Protocol 1); IIb-Fold over IIaR-Fold
FcγRIIb [6] = target: FcγRIIb (UniProt P31994); assay: SPR (Protocol 1), one-armed antibody captured on HER2, receptor as analyte; fold over wild-type
FcγRIIaR = FcγRIIaR (UniProt P12318); assay: as above
FcγRIIaR, sequence (P12318 34-217): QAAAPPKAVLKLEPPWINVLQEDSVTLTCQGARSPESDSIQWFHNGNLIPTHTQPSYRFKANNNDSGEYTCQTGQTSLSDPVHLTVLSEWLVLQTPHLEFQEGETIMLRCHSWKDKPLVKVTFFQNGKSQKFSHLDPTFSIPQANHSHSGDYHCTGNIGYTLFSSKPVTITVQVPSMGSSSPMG

FcγRIIaR, soluble extracellular domain, sequence (P12318 34-217): as above
FcγRIIb, sequence (P31994 43-217 limits assumed): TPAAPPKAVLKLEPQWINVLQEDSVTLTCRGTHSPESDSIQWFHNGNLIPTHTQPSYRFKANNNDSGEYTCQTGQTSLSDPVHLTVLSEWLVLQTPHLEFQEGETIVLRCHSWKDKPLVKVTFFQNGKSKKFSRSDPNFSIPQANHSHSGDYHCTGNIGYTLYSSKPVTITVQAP
FcγRIIb, soluble extracellular domain, sequence (P31994 43-217): as the sequence (P31994 43-217 limits assumed) above
Soluble FcγRIIaR extracellular domain with C-terminal 10×His tag, sequence (P12318 other isoform, or with tags, fused parts or gaps): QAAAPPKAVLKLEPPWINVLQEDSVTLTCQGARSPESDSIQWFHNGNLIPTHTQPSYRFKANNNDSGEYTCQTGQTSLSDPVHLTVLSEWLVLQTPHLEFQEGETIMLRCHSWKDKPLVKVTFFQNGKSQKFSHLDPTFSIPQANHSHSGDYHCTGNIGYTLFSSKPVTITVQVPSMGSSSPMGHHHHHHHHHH
Soluble FcγRIIb extracellular domain with C-terminal 10×His tag, sequence (P31994 other isoform, or with tags, fused parts or gaps): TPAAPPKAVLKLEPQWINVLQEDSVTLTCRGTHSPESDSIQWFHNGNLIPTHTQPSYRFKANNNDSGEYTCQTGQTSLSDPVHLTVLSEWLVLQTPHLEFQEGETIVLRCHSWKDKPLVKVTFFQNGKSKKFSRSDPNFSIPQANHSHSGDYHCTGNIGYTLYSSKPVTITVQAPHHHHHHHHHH

Substance	Kd [3] [nM]	Kd [4] [nM]	IIb/IIaR Selectivity (FcγRIIb [5])	IIb-Fold (fold affinity over wild-type) (FcγRIIb [6]) [fold]	IIaR-Fold (fold affinity over wild-type) (FcγRIIaR) [fold]	further results
Variant 26713 (A_D270V_strat2), one-armed trastuzumab antibody	–	–	–	–	–	Kd [1]: 41 nM; Kd [2]: 89 nM
Variant 26714 (A_D270L_strat2), one-armed trastuzumab antibody	–	–	–	–	–	Kd [1]: 33 nM; Kd [2]: 79 nM
Variant 26715 (A_D270I_strat2), one-armed trastuzumab antibody	–	–	–	–	–	Kd [1]: 25 nM; Kd [2]: 81 nM
Variant 26716 (A_D270F_strat2), one-armed trastuzumab antibody	–	–	–	–	–	Kd [1]: 17 nM; Kd [2]: 48 nM
Variant 26717 (A_D270W_strat2), one-armed trastuzumab antibody	–	–	–	–	–	Kd [1]: 27 nM; Kd [2]: 83 nM
Variant 26718 (A_D270Y_strat2), one-armed trastuzumab antibody	–	–	–	–	–	Kd [1]: 26 nM; Kd [2]: 69 nM
Variant 26719 (A_D270T_strat2), one-armed trastuzumab antibody	–	–	–	–	–	Kd [1]: 23 nM; Kd [2]: 63 nM
Variant 26720 (A_D270S_strat2), one-armed trastuzumab antibody	–	–	–	–	–	Kd [1]: 29 nM; Kd [2]: 79 nM
Variant 26722 (A_D270N_strat2), one-armed trastuzumab antibody with heterodimeric IgG1 Fc	77	21	–	–	–	–
Variant 26723 (A_D270E_strat2), one-armed trastuzumab antibody with heterodimeric IgG1 Fc	42	13	–	–	–	–
Variant 26724 (A_D270R_strat2), one-armed trastuzumab antibody with heterodimeric IgG1 Fc	–	89	–	–	–	–
Variant 26727 (A_D270P_strat2), one-armed trastuzumab antibody with heterodimeric IgG1 Fc	180	88	–	–	–	–
Variant 26729 (A_P271A_strat2), one-armed trastuzumab antibody with heterodimeric IgG1 Fc	93	34	–	–	–	–
Variant 26730 (A_P271V_strat2), one-armed trastuzumab antibody with heterodimeric IgG1 Fc	85	27	–	–	–	–
Variant 26731 (A_P271L_strat2), one-armed trastuzumab antibody with heterodimeric IgG1 Fc	68	22	–	–	–	–
Variant 26732 (A_P271I_strat2), one-armed trastuzumab antibody with heterodimeric IgG1 Fc	70	–	–	–	–	–
Variant 26734 (A_P271W_strat2), one-armed trastuzumab antibody with heterodimeric IgG1 Fc	72	28	–	–	–	–
Variant 26735 (A_P271Y_strat2), one-armed trastuzumab antibody with heterodimeric IgG1 Fc	110	35	–	–	–	–
Variant 26738 (A_P271Q_strat2), one-armed trastuzumab antibody with heterodimeric IgG1 Fc	77	26	–	–	–	–
Variant 26740 (A_P271D_strat2), one-armed trastuzumab antibody with heterodimeric IgG1 Fc	–	29	–	–	–	–
variant 16488, one-armed trastuzumab antibody (Scaffold 2), chain B E269K_G236D	–	–	0.91	0.16	0.17	–
variant 16489, one-armed trastuzumab antibody (Scaffold 2), chain A E269K, chain B G236D	–	–	2.1	0.85	0.41	–
variant 16492, one-armed trastuzumab antibody (Scaffold 2), chain A E269K, chain B G236N	–	–	1.83	0.13	0.07	–
variant 16549, one-armed trastuzumab antibody (Scaffold 2), chain B E269K_L234D	–	–	1.83	0.35	0.19	–
variant 16550, one-armed trastuzumab antibody (Scaffold 2), chain A E269K, chain B L234D	–	–	1.25	0.79	0.63	–
variant 16570, one-armed trastuzumab antibody (Scaffold 2), chain B E269K_L234F	–	–	3.35	0.37	0.11	–
variant 16571, one-armed trastuzumab antibody (Scaffold 2), chain A E269K, chain B L234F	–	–	0.97	0.4	0.42	–

More lines, main results first:

Kd [3] [nM]	Kd [4] [nM]	IIb/IIaR Selectivity (FcγRIIb [5])	IIb-Fold (fold affinity over wild-type) (FcγRIIb [6]) [fold]	IIaR-Fold (fold affinity over wild-type) (FcγRIIaR) [fold]	Substance	further results
87	28	–	–	–	Variant 26721 (A_D270Q_strat2), one-armed trastuzumab antibody with heterodimeric IgG1 Fc	–
74	23	–	–	–	Variant 26726 (A_D270H_strat2), one-armed trastuzumab antibody with heterodimeric IgG1 Fc	–
64	22	–	–	–	Variant 26728 (A_P271G_strat2), one-armed trastuzumab antibody with heterodimeric IgG1 Fc	–
87	31	–	–	–	Variant 26733 (A_P271F_strat2), one-armed trastuzumab antibody with heterodimeric IgG1 Fc	–
120	47	–	–	–	Variant 26736 (A_P271T_strat2), one-armed trastuzumab antibody with heterodimeric IgG1 Fc	–
90	36	–	–	–	Variant 26737 (A_P271S_strat2), one-armed trastuzumab antibody with heterodimeric IgG1 Fc	–
90	28	–	–	–	Variant 26739 (A_P271N_strat2), one-armed trastuzumab antibody with heterodimeric IgG1 Fc	–
–	–	2.48	0.24	0.1	variant 16491, one-armed trastuzumab antibody (Scaffold 2), chain B E269K_G236N	–
–	–	1.45	0.27	0.19	variant 16531, one-armed trastuzumab antibody (Scaffold 2), chain B E269K_S267I	–
–	–	1.84	0.95	0.51	variant 16532, one-armed trastuzumab antibody (Scaffold 2), chain A E269K, chain B S267I	–
–	–	1.89	0.21	0.11	variant 16576, one-armed trastuzumab antibody (Scaffold 2), chain B E269K_A327G_A330S_P331S_L234F_H268Q_K274Q	–
–	–	1.26	1.03	0.82	variant 16577, one-armed trastuzumab antibody (Scaffold 2), chain A E269K, chain B A327G_A330S_P331S_L234F_H268Q_K274Q	–
